Laboratory results from article PMC3852774.

What was measured:
[1] = molecular target: Tth Man5 β-mannosidase from Thermotoga thermarum DSM 5069 (Thermotoga thermarum DSM 5069); test: SEC; Superdex 200 10/30 GL column on an AKTA FPLC system; MW from the calibration curve of the gel filtration column
[2] = substrate: O=[N+]([O-])c1ccc(O[C@@H]2O[C@H](CO)[C@@H](O)[C@H](O)[C@@H]2O)cc1; test: purified protein; details: 50 mM imidazole-potassium buffer pH 5.5, 85°C, error given as ±0.5

Molecule: Tth Man5 β-mannosidase from Thermotoga thermarum DSM 5069 (enzyme)
- stoichiometry N [1]: 7

B1: Tth Man5 β-mannosidase (Pseudothermotoga thermarum DSM 5069) (protein)
chain: MDFLLGINYWSRSGAMYMWEDEYFNEEVIENEIIEMKNLGMNICRSFLFLPTFFPKPNKISEKHVERYLKFLNLCEEHGLKTLLTFIVGHMSGENFDPPFRNQRDLYMDEFMLQQQCFFVKSIVEKVRSSPAVYGYILSNEMPLYGGTGEPEKVLNWVKKLVEVIKSVDPTRPVGTGDGCWNVFGGENGFNLREISKIVDYLGPHVYLSETDEYRHSMIPEFVIRYLSQYDLPILYEEFGASSAQALDENIALYYREVLINCLINGAIGALGWCLNDFNYPNMKPYLHHPFELKFGIFKVDGARKPAAEEIVKFKNFVDSLENIQYPNAEACILVPSYYNKQYPFSFDDPKETFKHLLQATVLCAKAGFVVDLVEEENYKRWKSYKLIILPSERKYLATTWENLHKYVQAGGNLYISYYWGKYDFHQGIWSQNLESLIGCKLNLRYGLTSSLPSKVKLEYGGLTWKLNVEKCNEWEKSYAPIVSILETAESIELGQSDLQLVKNKVGSGKVFFINFPLEHILSVNEKINLSDLSHLIYRCIAKQASLNLCYCDNQRVRVRKIKSGRKTLYLIQNIAWDKEQVQTIFDNSSTYHVQIELDPKEYKLLNF
- Km [2]: 4.36 ± 0.05 mM
- Vmax [2]: 227 µmol/min/mg
- kcat [2]: 1920 s⁻¹
- kcat/Km [2]: 441000 M⁻¹ s⁻¹
